Laboratory results taken from patent publication US20180066058A1 (published 2018).

Assays:
Human ICOS on cells [1] = molecular target: T1, Human ICOS on cells (human, UniProt Q9Y6W8 21-199); test: cell-based or functional assay
T1 sequence: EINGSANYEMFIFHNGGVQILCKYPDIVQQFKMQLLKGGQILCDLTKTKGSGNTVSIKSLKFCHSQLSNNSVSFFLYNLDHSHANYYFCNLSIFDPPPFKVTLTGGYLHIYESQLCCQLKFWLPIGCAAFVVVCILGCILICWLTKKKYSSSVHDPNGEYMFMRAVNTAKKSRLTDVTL

Human ICOS on cells [2] = molecular target: T1, Human ICOS on cells; test: cell-based or functional assay; remark: listed apart in the source
Human ICOS on cells [3] = molecular target: T1, Human ICOS on cells; test: flow cytometry on activated human pan T cells (row Human), first donor column
Human ICOS on cells [4] = molecular target: T1, Human ICOS on cells; test: flow cytometry on activated human pan T cells (row Human), second donor column
[5] = molecular target: T2, Cynomolgus ICOS on activated cynomolgus T cells (cynomolgus, UniProt Q9Y6W8 21-195 (human entry)); test: flow cytometry, AF647 pre-labelled hIgG1 on activated cynomolgus pan T cells, donor 1
T2 construct: also called NHP ICOS
T2 chain: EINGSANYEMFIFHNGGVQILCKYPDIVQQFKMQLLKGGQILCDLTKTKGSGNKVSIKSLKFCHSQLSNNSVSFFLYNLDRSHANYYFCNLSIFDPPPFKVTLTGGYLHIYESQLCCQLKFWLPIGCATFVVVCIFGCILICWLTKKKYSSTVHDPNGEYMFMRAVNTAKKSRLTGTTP
Description: (§1) PBMC from whole blood of 2 Mauritian cynomolgus macaques (Wickham Laboratories) were isolated by gradient centrifugation and cultured for 3 days with CD2/CD3/CD28 MACSiBeads (Miltenyi) to induce ICOS expression on their surface. […] Cells were also labelled with V450-CD3 to assess staining on T-cell subsets. Stained cells were run on Attune (Thermofisher) and staining intensity was presented as mean fluorescence intensity (MFI). EC50 was determined using GraphPad Prism.

[6] = molecular target: T2, Cynomolgus ICOS on activated cynomolgus …; test: flow cytometry, AF647 pre-labelled hIgG1 on activated cynomolgus pan T cells, donor 2
Description: as §1

[7] = molecular target: T3, human ICOS-mFc (Chimerigen) (human, UniProt Q9Y6W8 21-140); test: HTRF neutralisation of Alexa 647 human B7-H2 binding to human ICOS-mFc; human IgG1; mean, n = 4
T3 construct: also called human ICOS receptor; human ICOS Receptor; not shown: mouse Fc of the bought construct
T3 sequence: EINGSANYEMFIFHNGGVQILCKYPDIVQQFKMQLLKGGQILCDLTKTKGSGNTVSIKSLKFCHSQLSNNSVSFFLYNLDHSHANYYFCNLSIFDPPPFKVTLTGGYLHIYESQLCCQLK
Description: (§2) 5 μl of ICOS receptor (human ICOS-mFc, 20 nM, 5 nM final or mouse ICOS-mFc 4 nM, 1 nM final (Chimerigen)) was added to required wells. Plate was incubated for 1 hr at room temperature (RT).
(§3) Finally, 5 μl of anti-mouse IgG donor mAb (Southern Biotech) labelled with europium cryptate (Cis Bio), 40 nM, 10 nM final was added to each well and the assay was left in the dark at RT to incubate for a further 2 hours. After incubation, assay was read on Envision plate reader (Perkin Elmer) using a standard HTRF protocol. […] Titration curves and IC50 values [M] were plotted using Graphpad (Prism). IC50 values were calculated by first transforming the data using equation X=Log(X). The transformed data was then fitted using nonlinear regression, using fitting algorithm, log (inhibitor) vs. response—variable slope (four parameters).

[8] = molecular target: T4, mouse ICOS-mFc (Chimerigen) (mouse, UniProt Q9WVS0 21-141, limits assumed); test: HTRF neutralisation of Alexa 647 mouse B7-H2 binding to mouse ICOS-mFc; human IgG1; mean, n = 3
T4 construct: also called mouse ICOS receptor; mouse ICOS Receptor; not shown: mouse Fc of the bought construct
T4 sequence: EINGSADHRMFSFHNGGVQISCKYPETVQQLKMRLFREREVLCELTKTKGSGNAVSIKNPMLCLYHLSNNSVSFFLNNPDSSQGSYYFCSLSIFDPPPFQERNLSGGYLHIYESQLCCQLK
Description: as §2, §3

Human ICOS on cells [9] = molecular target: T1, Human ICOS on cells; test: flow cytometry on activated primary human pan T cells; indirect binding assay; reference STIM001 hIgG1
Description: (§4) Pan T-cells (CD3 cells) were isolated and cultured for 3 days with CD3/CD28 dynabeads (Thermofisher) to induce ICOS expression on their surface. […] Stained cells were ran on the Attune and staining intensity was presented as Mean of fluorescence intensity (MFI). EC50 was determined using GraphPad Prism.

Human ICOS on cells [10] = molecular target: T1, Human ICOS on cells; test: flow cytometry on activated primary human pan T cells; naked hIgG1 detected with AF647 goat anti-human Fc
Description: as §4

[11] = molecular target: T3, human ICOS-mFc (Chimerigen); test: HTRF neutralisation of Alexa 647 human B7-H2 binding to human ICOS-mFc; human IgG4.PE; mean, n = 3
Description: as §2, §3

[12] = molecular target: T4, mouse ICOS-mFc (Chimerigen); test: HTRF neutralisation of Alexa 647 mouse B7-H2 binding to mouse ICOS-mFc; human IgG4.PE; mean, n = 3
Description: as §2, §3

[13] = molecular target: T5, Human ICOS extracellular domain fused to human Fc (human, UniProt Q9Y6W8 21-140); test: SPR (ProteOn XPR36), Fc-tagged ICOS captured on anti-human IgG, Fab analyte, 25 C
T5 construct: Dimeric protein made in house from NCBI NP_036224.1; also called hICOS; hICOS Fc; not shown: human Fc region
T5 sequence: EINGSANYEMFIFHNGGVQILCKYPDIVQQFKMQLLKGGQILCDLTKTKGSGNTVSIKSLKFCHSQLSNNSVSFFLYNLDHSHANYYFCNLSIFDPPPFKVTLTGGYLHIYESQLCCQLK
Description: Fab affinities of the ICOS leads were generated by SPR using the ProteOn XPR3 6 (BioRad). An anti-human IgG capture surface was created on a GLC biosensor chip by primary amine coupling, immobilising three anti-human IgG antibodies (Jackson Labs 109-005-008, 109-006-008 and 309-006-008). […] Binding sensorgrams were double referenced using a buffer injection (i.e. 0 nM), and the data was fitted to the 1:1 model inherent to the ProteOn XPR36 analysis software. The assay was run at 25° C. and using HBS-EP as running buffer.

[14] = molecular target: T5, Human ICOS extracellular domain fused …; test: SPR (ProteOn XPR36), human ICOS ECD-Fc captured, Fab analyte, pH 5.5, 37 C; poor fit to 1:1 model
Description: (§5) In addition, a comparison was performed of antibody:antigen binding affinity at different pH values. As before, the dimeric human ICOS protein, presented as the extracellular domain of ICOS fused to a human Fc region, was captured on the anti-human Fc capture surface created using the 3 antibody cocktail, immobilised on the GLC biosensor chip by primary amine coupling. SPR analysis of recombinantly expressed anti-ICOS Fabs was carried out on the ProteOn XPR36 Array system (Biorad). The Fab fragments were used as analyte to generate binding sensorgrams, which were double referenced with a buffer injection (i.e., 0 nM). The subsequent referenced sensorgrams were fitted to the 1:1 model inherent to the ProteOn analysis software. […] Data were fitted to the 1:1 model.

[15] = molecular target: T5, Human ICOS extracellular domain fused …; test: SPR (ProteOn XPR36), human ICOS ECD-Fc captured, Fab analyte, pH 7.4, 37 C; poor fit to 1:1 model
Description: as §5

[16] = molecular target: T3, human ICOS-mFc (Chimerigen); test: HTRF neutralisation of Alexa 647 human B7-H2 binding to human ICOS-mFc; human IgG4.PE table; n = 1
Description: as §2, §3

B1: STIM003 human IgG1 (antibody, V domains shown)
VH: EVQLVESGGGVVRPGGSLRLSCVASGVTFDDYGMSWVRQAPGKGLEWVSGINWNGGDTDYSDSVKGRFTISRDNAKNSLYLQMNSLRAEDTALYYCARDFYGSGSYYHVPFDYWGQGILVTVSS
VL: EIVLTQSPGTLSLSPGERATLSCRASQSVSRSYLAWYQQKRGQAPRLLIYGASSRATGIPDRFSGDGSGTDFTLSISRLEPEDFAVYYCHQYDMSPFTFGPGTKVDIKR
notes: Human IgG1 format; Conjugated with AF647 in the direct staining assays, coupled to beads or plates in the MJ cell assays; also called STIM003 (hIgG1); STIM003 hIgG1
- EC50 (Molar unit), NK primary cell ADCC assay on MJ cells, 2 hour time point, Donor 1 (Human ICOS on cells [1]): 0.00233 nM
- EC50 (Molar unit), NK primary cell ADCC assay on MJ cells, 2 hour time point, Donor 2 (Human ICOS on cells [1]): 0.0358 nM
- EC50 (Molar unit), NK primary cell ADCC assay on MJ cells, 2 hour time point, Donor 3 (Human ICOS on cells [1]): 0.101 nM
- EC50 (Molar unit), NK primary cell ADCC assay on ICOS-transfected CCRF-CEM cells, 4 hour time point, Donor 4 (Human ICOS on cells [2]): ~0.003 nM
- EC50 (Molar unit), NK primary cell ADCC assay on ICOS-transfected CCRF-CEM cells, 4 hour time point, Donor 5 (Human ICOS on cells [2]): 0.000895 nM
- EC50 (Molar unit), NK primary cell ADCC assay on ICOS-transfected CCRF-CEM cells, 4 hour time point, Donor 6 (Human ICOS on cells [2]): 0.00103 nM
- EC50 (Human ICOS on cells [3]): 2.29 nM
- EC50 (Human ICOS on cells [4]): 0.895 nM
- EC50 [5]: 4.58 nM
- EC50 [6]: 4.83 nM
- IC50 [7]: 1.3 nM
- IC50 [8]: 0.1 nM
- fold lower EC50 than STIM001 (Human ICOS on cells [9]): ~100 fold
- EC50 (Human ICOS on cells [10]): 0.148 nM

B2: STIM004 human IgG4.PE (antibody, V domains shown)
VH: EVQLVESGGGVVRPGGSLRLSCAASGLTFDDYGMSWVRQVPGKGLEWVSGINWNGDNTDYADSVKGRFTISRDNAKNSLYLQMNSLRAEDTALYYCARDYYGSGSYYNVPFDYWGQGTLVTVSS
VL: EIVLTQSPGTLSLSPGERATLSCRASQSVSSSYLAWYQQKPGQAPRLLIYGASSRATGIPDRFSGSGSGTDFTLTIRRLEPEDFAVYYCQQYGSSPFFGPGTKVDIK
notes: Human IgG4.PE (null-effector) format
- IC50 [11]: 161 nM
- IC50 [12]: 30 nM

B3: STIM002 Fab (Fab, V domains shown)
VH: QVQLVQSGGEVKKPGASVKVSCKASGYTFTSYGFSWVRQAPGQGLEWMGWISAYNGNTNYAQKLQGRVTMTTDTSTSTAYMELRSLRSDDTAVYYCARSTYFYGSGTLYGMDVWGQGTTVTVSS
VL: DIVMTQSPLSLPVTPGEPASISCRSSQSLLHSDGYNYLDWYLQKPGQSPQLLIYLGSTRASGFPDRFSGSGSGTDFTLKISRVEAEDVGVYYCMQALQTPLSFGQGTKLEIK
notes: Recombinantly expressed purified Fab
- Kd [13]: 1070 nM
- Kd [14]: 4.17 nM
- Kd [15]: 223 nM

B4: STIM006 human IgG4.PE (antibody, V domains shown)
VH: QVQLVESGGGLVKPGGSLRLSCAASGFTFSDYFMSWIRQAPGKGLEWISYISSSGSTIYYADSVRGRFTISRDNAKYSLYLQMNSLRSEDTAVYYCARDHYDGSGIYPLYYYYGLDVWGQGTTVTVSS
VL: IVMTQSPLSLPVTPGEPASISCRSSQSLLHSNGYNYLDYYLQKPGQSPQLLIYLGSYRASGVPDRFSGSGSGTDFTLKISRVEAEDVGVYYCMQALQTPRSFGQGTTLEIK
- IC50 [16]: 0.8 nM
